Experimental data taken from patent US20240026407A1, “MODIFICATION OF SAPONINS” (GLAXOSMITHKLINE BIOLOGICALS SA, priority 2020, published 2024).

B1: 1069 (protein, listed as Deltaproteobacteria bacterium)
chain: MSLHDRSWVWNPDWNESRKETSAGGFVHFRREIDLEKRPSRPIFISITADTRYKLYINSKFVHHGPVKGDSQVWYYDELDIQPYMKAGKNTIAVRVLRLYHGTRFGTSFPRMPLGGLRIQHIRDSNDPPIIFSIETNGSWKTAVDRSSFLPIIEDDMFLHIFEAVDRRNDCKLQWTSAKPHKIFNAFGLVSPWKLSPRQIPFANFRPAIFSTIHNIRSTSNDAEVVDWQACLLAKSSNRTPVRLAAGTIHHVELEASHHLTAFMSFLFERPENPGAEIKITYSECYEDVPDNPQFRQKADRRDTSKKLLGPYDTFILGGRIYEQEDPSSAYHESGEDMVIFAPFHFRTFRFIAIDIAVNSDSDLIFHGVQITRTKYPLDVLAQFSPGGRDVTLPVQKMWETSILTLENCMHDCYEDCPFYEQLQYAMDTRSSALFTYYLSGDDRLARQAITQTRNSFQPSIGLTASRAPCEHLQIIPNFSLFWICMVADHYLHYGDMAFTSQFLPVCDAVLDSFRRRIDPDLGLVRCYDTDDFWDFVDWTEAWKPRGIPPAGKRTGYQTFSSSLYAYTLNLIAPAVEEYGRKGVAEEYRQSAAEVAASIWQHCFDGQYFTDGLAGSALNSEYSQHNQVWAILSGAVIGDEARQLLSKTLSRHDLTTPSIAMSFYTLQAVSLVGGDLYDLHFNDFWAPWIEQLSNNVTTWVEDNVSQRSECHAWGSAPIYEFMAEVVGLRPLEPGWRSISFKPRLALFETMDSKVPIPIRGSSGMAVAHVRWGRKGDDIAGVTIELKKGAENLRIPITLSHESGEDEVVISPFARDVRIQ
B2: 1045 (protein, listed as Acidobacterium capsulatum)
chain: MLVGGLATAATAQTNLQQLEKTFQNPPDNAKPMLRWWWFGPSVTKPEILREMQQIKAGGFGGFVIHYVYPLALDDPQTGFRNLPFLSPAMLSDVSYANRQAHALGLRAGTALASGWPYGGPMTAVTEAAAKIVQKESTVAPGAHSVALPSIGNGQKLLAVFAQDGSAGSQQKMLPLPAPVTLRMAIPTGTHIVDWYLMSRTGQQVKRAAVDANGFVLDHFSHHAVADHLKNVGDKLVAAFGSEPPDSVFSDSLEVFGADWTPDFLEEFRKKNGYSLLPYLPDLFMKHPDAQALAVRHDWGVTLTALIDENYLTQVNAWARAHHTHLRAQVYGPPAVSLSSNNLVDLPEGEGPQWRQFAYTRWATSAGHLYGRPIISSETFTWLHSPAFRATPLDVKAEADRFFLQGVNQIYCHGWPYSPPSAGEPGWRFYAAAVFDAHNPWWIVMPEVTQYLQRVSWIMRQGAPANRVAIFLPEDDAWAAFTPGQVALTGLLPRWITPQLTQAIENSGYDFDYIDAAAIQARGIHYSLLILPNVDRISPAALTAIQQYEKSGGKVIALGRIPAHAPGFLHYEQISAEVNRESHAFFGHPGARVRVVQAVSGLGDALHQMLTPAMTLSAAKPAVGFVRRKLDDADIYFLANTSNVSIHTVAHLRSRYTSGTWLDPMSGKAYAAQSRNGGWPLHLAPYGSTILVLHAKNVRLPVAAGHDSFNPSSTKAIADLSSDWNVSFPALHLQEPMATLASWTKNEKTLYYSGVAVYRRTLEVAQNDLDHAPLLLSFGQGTPVSPSAFHRQMGTRAWLNPPVHVAAVVYVNGRLAGTVWHPPYVLAVGGLLKPGANQIEVRVANTAINEMAGKSLPDYRLLWARYGRRFEPQDMKHLQPLPSGLLGKVELLEGESR
B3: 1080 (protein, listed as Eisenbergiella massiliensis)
chain: MANWIWYPGDFEIYHGMCQNFDREERGFFWPAYWHIADCRHHVVFHASCRLEKETAFRVTAKGIGHVLVKWEEKAPSWFPEGQPFYQEKKYTIGEWISCPAKEIGIDVVIGNRTGLPCIYVEGEVIRSGKNWTVTDFAAPEVPVGWNDMYVRAQQDPQIFEYTQELCRPVSTERVNGGVLYDFGRELTADTLIKINGEERPDQVTLCYGESRTEALDTQLCYLKQVLEIPGKKDSVPAGCASGPEREADCGASPFGRWESGQRYHTKLRAFRYIFVPEGENASLVTVEALYKYVDFPKRSSFSCSDGLINRIWEVADTTFRLASGIFFLDGVKRDRWIWSGDAYQSYFINQYLFFDKDICKRTILALRGNDPVTEHINTIVDYSMYWIISLENYYNMSGDLDFIRMVYPRMESLLRYCMEQTDGQGFIYGREGDWIYIDWAELDKEGILCAEQQLLARSYEAVASVRRLLGLDAEEFDVRKEALLKNIRQFFWDEEKGAFIDSYQSGRRNVTRHANIFAVLFGYADEAETESILHKVLLNEEVAAITTPYFKFYELEALAKLGRFEVVMDTLKSYWGGMLERGADTFWEEYKPEQPEEEQYGMYGDKYGKSLCHAWGASPIYLLGRYCMGVRPTGTAYETFAVEPQLELFDSFSCSFPVNEGTVWMDWKDGVLDVYTDKDGGVLKAAGKEYTLERGKHVVVKGR
B4: 1056 (protein, listed as Solitalea canadensis)
chain: MKPIITNLMLLLFAGAASAQSSKELYRSKEFSIYTDKVVQGKYIAKVLSPTEMTSDYQSPVNLYKSPKLTFKFSINGKDNEMISGQDHSINVMAKDGKFISPLITFGKHYVDKKNVPDNTYLEPNIDFTIRLDMRNVLNAFKTDGFYKGADGKKVYKEDFKGVYVAGSTLPLIWDFDNLVHHPDLQLKDDDGDGIYEVKVVLNEFKEQPSVSSNWKLKRNISAFPQYQASSPIENAMYNLSLDEMENAIEADSTLRTGKEWAGVWTRDVSYSIILSMAILQPKVAEYSLLRKVKNDRIIQDTGTGGAYPVSTDRMIWAVAAWEIYKTTGDKNWLSKAYSIIKNSIEDDWKNAYDPKTGLVKGESSFLDWREQEYPKWMQPADIYESECLGTNVVHFQANKVFAEMAILLGQKTVSDEHNAIAQTIKTGINNYLWIANKGYYGQYLYGRNYKILSPRSEALGEALAVIFGVADNERQKTIVRNTPVNSFGIPCFYPQLPNTPPYHNNAVWPFVQTYWALAAANAGNEQSVMESIAAIYRPAALFLTNKENFVADNGDFAGTQINSSNMLWSLSGNIALVYKVLFGMQFGADRLTFKPTVPQALAGTRMLTNFKYRNALLTISMQGFGTQIKSITMDGKPLVNAIVPASLTGKHTIKMVLTNMMESSSTTILPAYTSLTIPQVELKNDEIVWKKVPNAVSYVFIKNGDRIDNGIDTACIINNNSFAEYQVIAVDKNGVESFGSEPLQIIPEQTVKTIEIENLTSKADLPYKGYSGDGFVEISTQKNTILSFETTITEAGTYAINFKYANGNGPINTENKCAFRTLKLNNKQVGTVVLPQRGTNEWSEWGMSNSVIVELKAGTNKFDLTYETNNANMNGTVNQAMLDYVRIVKVE
B5: 996 (protein, listed as Opitutus terrae)
chain: MHRRFLAAILLGAPALLESAAAAPETPAAPPPAAAQPLAWPEVHRETKPWSRWWWFGNIADEKSVTAQLEACAAAGLGGLEITPIYGVRGYEDRFVPFLSPRWMELLRHTLVESRRLGLGIDLATGTGWPFGGPWLQPEDVAHTLAHRVYEIKPGERLGEPVRLTATGLVRVAGPRPVKLEELREPITANANLQELALDQVRFPKPMRLVSLMAFPLALAGVAPTPLDLTSRVRADGSLDWTAPADAGTWTLYALFAGPHGKMVERAAPGGEGFALDHFSSTALRAYLARFDAAFAEGHLLSDLPSAAGADSAPRLRAFFNDSYEVDDADGEANWTPRFLEEFQKRRGYDLRAHLPELLATTENDFSARVRSDYRETISDLLLDEFTNPWREWAHQHGALIRNQAHNSPANILDLYAASDIPEQEGNGFLAMKLASSAAHVSGKPLASAETATWLNEHFLTTLAELKQNTDEFLLAGINHVCYHGTALSPLDAAWPGFNFYASVELNPLNPFWRDFTALNAYVARAQSFLQSGTPDEDVLLYYNIHDRWAERGNGRMPHFGHGGRDPSGSLAATAAALHEAGVGFDYVSDRQLQKITPDRAIVVPQTTFMPEATLARLVELAAQGATILFVDHLPRSAPGLAGLNASGRFEQLLQKIQTQLAPSDVLSAAKLDGGQFLLGPGIRELLDRCPGIARESLRPFGLEFVRRRTDAGALYFLVNRSNQPIDRWIPLQSPAAAAALFDPMTGNAGLAAIHSSGPTGSASIPPAHSDGARASRAPTEIYLQLAPGESCVVQLHATPVAGPAWHYWQRAGEPHLLTGDWSVTFTAGGPALPAAAQLHALTSWTDFAGEAGRAFSGTAVYTRRFARPSGDAPAWELDLGTVGDSARVTLNGRELGVLIQPPWRVVIPANEWRDENALEIDVTNLAANRIADLDRRGASWKIFYNANFPARFRENVGPDRQFTAARWLPRNSGLLGPVKLTPLQKSDPTL
B6: 997 (protein)
chain: MKSFIKELIEQKEGNYILPFFWQHGESEGKLREYMEAIHSCGIRAVCVEARPHPDYLGPGWWHDLDIIIDEAKKRDMKLWILDDAHFPTGYAAGKIAESEDKYCKQYISRKFIDVSGPTPEVEVNLAAMMMPIMLPSGLNLEMFGMSSEKKRYFTDDRILSIRAYQMDKDSSLIGEGIDLTTNIVNGKLIWDVPKGTWRINVLFITRNGEGRCDYINMVDKDSCRIQIDAVYEPHYEHYKEEFGKTIAGFFSDEPCLGNSIGYNFDESIGKKKTPLPWSSQLEKMLEEKLGKEYLPYYPALWTDMADEKVNARVRYAYMDCVTRLVEENFSRQIGQWCEERGVEYIGHIVEDNNQHSRLGSSQGHFFRSMMGQHMSGIDNIGDQVLPGGENHKREALLGADKDGEFYHYELGKLGSSLAHIDPKKQGRAMCEIFGAYGWRLGIRTMKYLMDHFLVRGINVYVPHAFSPKDFPDSDCPPHFYAGGEDPQFNYFKKLMHYTNRMCHLLNGGTHIAPAAVLYHGEAEWTGGCMFNQKVARELLESQIDFDILPSDVFADMSAYNATFDGFLQVNGESYDCFIVPYAEFITKEVAVFAGTASKKGFPVFFVQGLPESICNIDKKEEEKLLLDGMSECIVVPLEALSKTLKDNKLFEISSDNQFDGLRYYHYRKEQTELYMFSNESIGKEYNGWITVKSKGEVSLYDAMDNRIIPAEYRNTEDGTSIHIRLTPYQSVVALFEDLKEVEDQGNFEAKPGYRLDAAWRISSAEVSKYPEFQPVEVTTELKSMGRVLPDFSGYLRYESEFVYDRMPTGRELLNITDVYEGAEVWLNGHCLGMKICPPYQFPLGEALRAGENHIRIEVATTLDRKVKSLPQDMRSLMFYSKITEPTGIVGSVEIWN
modifications: Lachnoclostridium phytofermentans

experiment: Experiment 6-1: screening of rhamnosidases for derhamnosylation of saponins in treated bark extract (2%), desglucosyl-QS-17 2134 to QS-21 1988 (PAR %); assay type: biochemical, Quillaja saponaria; details: TBE 2%, pH 7.5, 30 degC, 18 h; TIC peak area ratio percent, LCMS/MS; negative controls 2.719, 2.158

Molecule | Peak75 (PAR %) [%]
B1 | 2.213
B2 | 2.442
B3 | 2.434
B4 | 2.416
B5 | 2.221
B6 | 2.115

experiment: Experiment 6-1: specificity of rhamnosidases towards other rhamnose residues (C3 saccharide rhamnose, C28 saccharide rhamnose); assay type: biochemical, Quillaja saponaria; details: TBE 2%, pH 7.5, 30 degC, 18 h; LCMS/MS; negative controls 0.18, 0.17

Molecule | ratio PP/QS-21
B1 | 0.17
B2 | 0.17
B3 | 0.17
B4 | 0.17
B5 | 0.16
B6 | 0.17

experiment: Experiment 6-1: screening of rhamnosidases for derhamnosylation of saponins in treated bark extract (2%), QS-17 2296 to QS-18 2150 (PAR %); assay type: biochemical, Quillaja saponaria; details: TBE 2%, pH 7.5, 30 degC, 18 h; TIC peak area ratio percent of rhamnosylated starting saponin to derhamnosylated product, LCMS/MS; negative controls 4.876, 5.225

Molecule | QS-17 (PAR %) [%]
B1 | 4.786
B2 | 4.741
B3 | 4.792
B4 | 4.774
B5 | 4.778
B6 | 4.754

experiment: Experiment 6-1: screening of rhamnosidases for derhamnosylation of saponins in treated bark extract (2%), QS-17 2310 to QS-18 2164 (PAR %); assay type: biochemical, Quillaja saponaria; details: TBE 2%, pH 7.5, 30 degC, 18 h; TIC peak area ratio percent, LCMS/MS; negative controls 3.061, 2.429

Molecule | Peak57 (PAR %) [%]
B1 | 2.596
B2 | 2.865
B3 | 2.882
B4 | 2.796
B5 | 3.190
B6 | 2.906
